These results are taken from PMC3810769 (Molecular Biology of the Cell, 2013).

The target in test [1] is T1, nebulette SH3 domain fused to glutathione S-transferase (human (by the printed UniProt entry …, UniProt O76041 954-1014)).
T1 sequence (looked up): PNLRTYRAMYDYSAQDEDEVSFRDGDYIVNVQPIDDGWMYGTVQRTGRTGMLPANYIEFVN
Briefly: peptide or protein array.

Test [2] concerns the target T2, nebulin SH3 domain (UniProt P20929 8466-8525).
T2 sequence (looked up): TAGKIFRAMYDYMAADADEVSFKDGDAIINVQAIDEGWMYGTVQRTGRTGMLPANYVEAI
Briefly: ITC. (In general: Isothermal titration calorimetry measures the heat released or taken up as one component is titrated into another.)

In test [3] the target is T3, nebulette SH3 domain (residues 955-1014) (human (by the printed UniProt entry …, UniProt O76041 955-1014)).
T3 sequence (looked up): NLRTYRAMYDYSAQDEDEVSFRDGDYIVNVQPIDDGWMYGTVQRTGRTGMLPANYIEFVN
Kind of test: ITC.

The target in test [4] is T2, nebulin SH3 domain. Kind of test: ITC. This is another data set of the same source.

Where two headings read alike, the source gives them in different places.

B1: XIRP2 PR6 peptide GVLPPPTLPKPK (peptide)
peptide: GVLPPPTLPKPK
Take B1: the binding result in test [1] is “binds”.

B2: synthetic 13-mer XIRP2 peptide PPPTLPKPKLPKH (peptide)
peptide: PPPTLPKPKLPKH
In the case of B2, the affinity in the test with nebulin SH3 domain [2], expressed as Kd, was 9.3 µM. Further, in test [3], the Kd (as a rule, a measure of binding affinity in units of concentration) came out at 12.9 µM; the dH was -35.4 kJ/mol; the stoichiometry N (as a rule, the number of molecules, sites or subunits per partner or assembly) was found to be 1.12. In the test with nebulin SH3 domain [4], the Kd turned out to be 9.61 µM, the dH is -39.5 kJ/mol and the “stoichiometry N” value came to 1.02.
